The values below come from patent US20060177440A1 (published 2006).

Positions count from the first letter of the chain named.

The labels stand for the following.
T1: human Rh(D) antigen (human, UniProt Q02161 2-417)
T1 construct: whole, on cells; also called wt; wild-type Rh(D) on Rh(D)-positive RBCs
T1 sequence (looked up): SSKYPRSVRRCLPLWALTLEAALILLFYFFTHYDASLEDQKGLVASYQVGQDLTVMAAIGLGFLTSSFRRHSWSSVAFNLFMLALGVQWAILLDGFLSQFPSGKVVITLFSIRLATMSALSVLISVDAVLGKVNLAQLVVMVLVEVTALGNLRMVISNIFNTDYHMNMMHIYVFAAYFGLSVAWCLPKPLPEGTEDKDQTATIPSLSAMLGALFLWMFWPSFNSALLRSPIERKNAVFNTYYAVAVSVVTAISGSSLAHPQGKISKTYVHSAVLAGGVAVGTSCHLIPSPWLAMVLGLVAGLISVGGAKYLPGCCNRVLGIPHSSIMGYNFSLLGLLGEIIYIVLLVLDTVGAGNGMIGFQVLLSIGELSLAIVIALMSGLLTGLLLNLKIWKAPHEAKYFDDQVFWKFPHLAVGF

B1: SH13 (Fab, V domains shown)
VH: EVQLLESGGGVVQPGRSLRLSCAASGFTFSSYGMHWVRQAPGKGLEWVAVVYYDGSNKHYSDSVKGRFTISRDNSKNTLYLQMDSLRAEDTAVYYCARERNFRSGYSRYYYGMDVWGPGTTVTVSS
VL: not shown
notes: Fab/phage
B2: SH56 (Fab, V domains shown)
VH: B1 VH with S71F
VL: AELTQSPSSLSASVGDRVTITCRASQSISRYLNWYQQKPGKAPKLLIYAASSLQSGVPSRFSGSGSGTDFALTISSLLPEDFATYYCQQGYSTPPYSFGQGTKLEIKR
notes: Fab/phage
B3: SH17 (Fab, V domains shown)
VH: EVQLLESGGGLVQPGGSLRLSCGASGIPFVSSWMAWVRQAPGKGLEWVANIKQDGSKKNYVDSVEGRFTISRDNAKNSLYLQMDSLRAEDTRIYYCARDSLTCFDYWGQGALVTVSS
VL: AELQDPVVSVALGQTVRITCQGDGLRSYYASWYQQKPGQAPKLVMYGRNNRPSGIPGRFSGSSSGQTAALTITGTQAEDEADYYCQSRATSGNPVVFGGGTKLTVL
notes: Fab/phage

The target in this assay is T1, human Rh(D) antigen. The assay is described as follows: Fab/phage agglutination (anti-M13). On the procedure: Following a one-hour incubation at 37° C., the RBCs were washed 3 times with 2 ml of cold PBS to remove unbound antibody. The resulting RBC pellets were resuspended in 100 μl of a 10 μg/ml solution of sheep anti-M13 antibody (5 Prime-3 Prime, Boulder, Colo.) for Fab/phage experiments or goat anti-human κ or λ light chain antibody (Tago, Burlingame, Calif.) for γ₁κ or γ₁λ soluble Fab experiments, respectively. The RBC suspensions were transferred to the round-bottomed wells of a 96-well microplate and left undisturbed for […]. Negative reactions show sharp ˜2 millimeter diameter RBC spots whereas the RBCs in agglutinated wells form a thin carpet coating the entire floor of the well (Siegel et al., 1997, J. Immunol. Meth. 206:73). Agglutination titers for recombinant antibodies were determined by performing serial 2-fold dilutions in 1% BSA/PBS.
Fifty-six randomly chosen colonies were selected, and monoclonal Fab/phage preparations were separately produced from each of these individual colonies, using the methods described herein in Example 1. Rh(D) specificity was determined by indirect agglutination using anti-M13 antibody, as described herein in Examples 1 and 2.
B1: the binding result is on record as “binds”.

Take B2: the binding result is given as “binds”.

B3: the binding result is on record as “binds”.
